The source of these data is US20220363718A1.

*1 amine or outer side, *2 acyl side, *3 side chain or, on linkers, in order; H or OH if unused. Bridges are numbered along the chain shown (N, C = ends). [ ]: non-standard residue; d: D form. TATA = O=C(CC[*:1])N1CN(C(=O)CC[*:2])CN(C(=O)CC[*:3])C1; Trp(1-Me) = Cn1cc(C[C@H](N)C(=O)O)c2ccccc21; Arg(Me2a) = CN(C)C(=N)NCCC[C@H](N)C(=O)O; Phe(4-F) = N[C@@H](Cc1ccc(F)cc1)C(=O)O; tBuAla = CC(C)(C)C[C@H](N)C(=O)O; NMeD = CN[C@@H](CC(=O)O)C(=O)O; NMeA = CN[C@@H](C)C(=O)O

For the test, the target named is Biotinylated human TSLP (human). Kind of test: SPR, biotinylated hTSLP on streptavidin chip.

The term Kd denotes the concentration at which binding is half-saturated. Lower therefore signals a tighter complex.

Sequence of Biotinylated human TSLP (human) (chain, as listed by the source limits assumed): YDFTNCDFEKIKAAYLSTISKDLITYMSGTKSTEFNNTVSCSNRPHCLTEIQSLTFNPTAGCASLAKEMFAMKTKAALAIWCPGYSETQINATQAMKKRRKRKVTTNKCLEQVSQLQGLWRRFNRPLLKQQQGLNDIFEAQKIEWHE

B1: Example 5 (peptide)
peptide: Ac-C[NMeA][Trp(1-Me)][tBuAla]Q[NMeD]C[Trp(1-Me)][Arg(Me2a)]G[Phe(4-F)]C-NH2
modifications: linker 1-7-12 via TATA
As to B1, the Kd was determined as 2.7 nM.

B2: Example 13 (peptide)
peptide: CQXLEDCXXGXC
modifications: not fully specified; N-term acetyl; CQ[TrpMe]LEDC[TrpMe][ADMA]G[4-FPhe]C as printed; 3 Cys on TATA
With B2, the Kd was 6 nM.
